Measured values: patent publication US20230272045A1 (MONASH UNIVERSITY, published 2023)

Assays:
Experiment in all cases: ELISA; ECM protein coated at 100 nM, BMP-2 0.1 to 100 nM
[1] = target: T1, human fibrinogen (human, UniProt P02671 20-644; P02675 31-491; P02679 27-437, limits assumed)
T1 construct: Coated on ELISA plates at 100 nM; also called Fg
T1 sequence (looked up) 1: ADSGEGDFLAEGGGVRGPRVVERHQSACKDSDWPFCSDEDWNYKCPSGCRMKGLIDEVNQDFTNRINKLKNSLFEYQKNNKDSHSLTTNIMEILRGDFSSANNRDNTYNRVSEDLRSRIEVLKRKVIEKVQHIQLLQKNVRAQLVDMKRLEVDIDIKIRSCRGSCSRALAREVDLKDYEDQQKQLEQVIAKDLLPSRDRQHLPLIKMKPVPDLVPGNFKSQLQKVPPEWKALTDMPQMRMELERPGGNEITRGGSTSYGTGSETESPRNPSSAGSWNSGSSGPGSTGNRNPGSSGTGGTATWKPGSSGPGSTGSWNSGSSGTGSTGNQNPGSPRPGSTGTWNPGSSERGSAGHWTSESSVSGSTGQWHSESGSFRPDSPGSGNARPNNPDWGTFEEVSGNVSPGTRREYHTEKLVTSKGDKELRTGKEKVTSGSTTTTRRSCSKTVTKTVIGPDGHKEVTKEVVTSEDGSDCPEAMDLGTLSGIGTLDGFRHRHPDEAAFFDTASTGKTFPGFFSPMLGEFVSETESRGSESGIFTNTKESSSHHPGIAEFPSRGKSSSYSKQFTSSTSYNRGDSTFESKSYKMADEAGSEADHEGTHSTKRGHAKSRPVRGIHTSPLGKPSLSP
T1 sequence (looked up) 2: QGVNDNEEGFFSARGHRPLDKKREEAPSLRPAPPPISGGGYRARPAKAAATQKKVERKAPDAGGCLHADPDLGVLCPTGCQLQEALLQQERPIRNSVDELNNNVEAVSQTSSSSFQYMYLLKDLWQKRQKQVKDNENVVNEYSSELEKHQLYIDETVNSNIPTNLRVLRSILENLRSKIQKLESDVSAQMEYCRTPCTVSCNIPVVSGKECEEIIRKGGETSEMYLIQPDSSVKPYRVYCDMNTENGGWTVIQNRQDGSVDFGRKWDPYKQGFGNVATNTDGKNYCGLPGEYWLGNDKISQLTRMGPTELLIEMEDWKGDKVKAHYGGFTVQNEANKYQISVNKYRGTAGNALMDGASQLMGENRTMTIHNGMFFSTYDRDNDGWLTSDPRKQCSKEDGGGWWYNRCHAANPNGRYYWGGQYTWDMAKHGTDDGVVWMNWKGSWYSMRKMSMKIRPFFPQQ
T1 sequence (looked up) 3: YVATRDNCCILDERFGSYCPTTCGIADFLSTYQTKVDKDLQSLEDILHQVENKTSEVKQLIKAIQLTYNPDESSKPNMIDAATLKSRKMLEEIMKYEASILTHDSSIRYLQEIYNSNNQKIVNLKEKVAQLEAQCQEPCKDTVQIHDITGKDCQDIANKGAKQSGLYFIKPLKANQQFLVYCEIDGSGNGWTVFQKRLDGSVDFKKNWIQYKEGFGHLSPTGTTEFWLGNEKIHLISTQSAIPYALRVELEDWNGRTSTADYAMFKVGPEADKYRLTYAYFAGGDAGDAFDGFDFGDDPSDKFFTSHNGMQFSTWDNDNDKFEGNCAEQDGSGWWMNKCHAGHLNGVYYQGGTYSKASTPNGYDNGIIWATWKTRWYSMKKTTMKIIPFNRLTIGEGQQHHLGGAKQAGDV
Method: (§1) ELISA plates (Greiner bio-one medium binding, Thermo Fisher Scientific) were coated with 100 nM of ECM proteins in […] of PBS for 1 h at 37° C. Then, wells were washed with […] of PBS-T (0.05% Tween-20) and blocked with […] of BSA solution (1% in PBS-T) for 1 h at room temperature. Wells without ECM protein coating, and wells blocked only with the BSA solution were used as controls for non-specific binding. ECM coated wells and control wells were further incubated 1 h at room temperature with solutions of BMP-2 (Peprotech), murine PDGF-BB (Peprotech), IL-1Ra (R&D Systems), or PIGF₁₂₃₋₁₄₁-fused proteins at concentrations ranging from 0 to 100 nM ([…] in PBS-T containing 0.1% BSA prepared in protein-low bind tubes (PROKEEP, Watson bio lab). Then, wells were washed 3 times with […] of PBS-T and incubated for 1 h with […] of biotinylated polyclonal detection antibodies in PBS-T with 0.1% BSA. Detection antibodies used were from BMP-2 DuoSet ELISA (R&D Systems, DY355) for BMP-2, PDGF-BB DuoSet ELISA (R&D Systems, DY8464) for PDGF-BB and IL-1Ra/IL-1F3
(§2) DuoSet ELISA (R&D Systems, DY480) for IL-1Ra. Wells were further washed 3 times with PBS-T and incubated for 20 min with […] of streptavidin-horseradish peroxidase (HRP). After three washes with PBS-T, TMB (ThermoFisher) was added followed by […] of stop solution (0.16M sulfuric acid). Concentrations of detection antibodies and streptavidin-HRP were used according to the manufacturer's instructions. To calculate the dissociation constants (KD) specific-binding values were fitted with a one site specific binding model using A450 nm=Bmax*[growth factors or IL-1Ra variants]/(KD+[growth factors or IL-1Ra variants]).

[2] = target: T2, human plasma fibronectin (human, UniProt P02751-8 32-2296, limits assumed)
T2 construct: Coated on ELISA plates at 100 nM; also called Fn
T2 sequence (P02751 other isoform, or with tags, fused parts or gaps limits assumed): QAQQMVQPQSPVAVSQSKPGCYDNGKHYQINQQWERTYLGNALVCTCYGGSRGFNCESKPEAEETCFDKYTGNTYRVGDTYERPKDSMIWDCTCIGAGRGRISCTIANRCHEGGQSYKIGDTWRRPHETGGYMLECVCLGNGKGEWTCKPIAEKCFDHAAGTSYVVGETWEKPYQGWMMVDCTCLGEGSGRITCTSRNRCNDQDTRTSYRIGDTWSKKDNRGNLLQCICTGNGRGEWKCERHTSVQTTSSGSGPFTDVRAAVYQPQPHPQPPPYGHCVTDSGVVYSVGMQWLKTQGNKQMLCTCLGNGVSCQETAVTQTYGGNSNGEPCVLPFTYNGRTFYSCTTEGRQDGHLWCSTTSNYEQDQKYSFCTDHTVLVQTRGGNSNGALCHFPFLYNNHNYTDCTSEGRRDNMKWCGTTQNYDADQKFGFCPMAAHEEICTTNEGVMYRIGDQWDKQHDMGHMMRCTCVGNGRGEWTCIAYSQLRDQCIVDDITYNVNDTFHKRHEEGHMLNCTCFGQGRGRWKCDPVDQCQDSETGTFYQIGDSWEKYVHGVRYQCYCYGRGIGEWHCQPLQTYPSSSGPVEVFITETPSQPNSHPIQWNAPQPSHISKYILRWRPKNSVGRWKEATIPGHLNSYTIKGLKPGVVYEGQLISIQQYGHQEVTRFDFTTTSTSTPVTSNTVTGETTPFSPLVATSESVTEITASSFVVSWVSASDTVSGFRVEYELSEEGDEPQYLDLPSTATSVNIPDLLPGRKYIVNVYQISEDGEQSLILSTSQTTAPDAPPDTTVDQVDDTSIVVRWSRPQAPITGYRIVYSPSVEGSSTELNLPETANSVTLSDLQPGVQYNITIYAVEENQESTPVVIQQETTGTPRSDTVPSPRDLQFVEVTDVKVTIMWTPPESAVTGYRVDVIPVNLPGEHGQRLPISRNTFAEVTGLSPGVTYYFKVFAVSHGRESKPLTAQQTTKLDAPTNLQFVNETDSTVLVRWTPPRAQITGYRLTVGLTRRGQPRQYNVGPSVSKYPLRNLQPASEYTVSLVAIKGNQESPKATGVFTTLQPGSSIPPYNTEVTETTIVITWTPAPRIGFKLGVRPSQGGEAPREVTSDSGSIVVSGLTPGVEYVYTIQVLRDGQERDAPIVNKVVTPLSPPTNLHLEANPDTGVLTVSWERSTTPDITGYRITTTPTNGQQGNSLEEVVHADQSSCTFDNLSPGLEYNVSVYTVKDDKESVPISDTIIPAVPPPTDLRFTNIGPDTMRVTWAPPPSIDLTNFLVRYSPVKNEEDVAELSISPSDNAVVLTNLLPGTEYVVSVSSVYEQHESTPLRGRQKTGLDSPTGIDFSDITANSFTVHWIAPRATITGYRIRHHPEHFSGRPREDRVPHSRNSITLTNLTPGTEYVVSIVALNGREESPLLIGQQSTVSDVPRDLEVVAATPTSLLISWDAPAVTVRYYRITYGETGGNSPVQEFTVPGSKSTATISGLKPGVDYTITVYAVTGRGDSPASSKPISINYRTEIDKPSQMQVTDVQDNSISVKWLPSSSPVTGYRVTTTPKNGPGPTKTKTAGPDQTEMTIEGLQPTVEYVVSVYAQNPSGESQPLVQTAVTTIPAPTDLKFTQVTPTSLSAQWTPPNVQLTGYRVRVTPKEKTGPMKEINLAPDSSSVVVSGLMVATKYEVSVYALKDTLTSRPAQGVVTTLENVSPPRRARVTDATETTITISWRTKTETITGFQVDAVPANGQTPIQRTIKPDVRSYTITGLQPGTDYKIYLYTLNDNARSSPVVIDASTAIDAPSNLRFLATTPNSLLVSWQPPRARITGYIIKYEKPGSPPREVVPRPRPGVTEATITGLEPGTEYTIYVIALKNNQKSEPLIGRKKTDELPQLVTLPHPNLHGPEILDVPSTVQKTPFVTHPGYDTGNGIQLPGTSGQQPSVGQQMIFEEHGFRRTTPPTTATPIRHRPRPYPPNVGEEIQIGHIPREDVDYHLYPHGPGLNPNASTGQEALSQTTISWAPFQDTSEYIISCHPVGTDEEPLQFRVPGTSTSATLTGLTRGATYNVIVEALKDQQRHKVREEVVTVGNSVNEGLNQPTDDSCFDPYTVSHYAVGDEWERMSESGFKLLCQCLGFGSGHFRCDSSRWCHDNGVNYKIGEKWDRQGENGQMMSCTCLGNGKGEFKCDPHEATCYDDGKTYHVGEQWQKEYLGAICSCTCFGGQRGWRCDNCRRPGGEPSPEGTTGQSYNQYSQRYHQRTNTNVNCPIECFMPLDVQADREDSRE
Method: as §1, §2

[3] = target: T3, human vitronectin (human, UniProt P04004 20-478)
T3 construct: Coated on ELISA plates at 100 nM; also called Vn
T3 sequence (P04004 20-478 limits assumed): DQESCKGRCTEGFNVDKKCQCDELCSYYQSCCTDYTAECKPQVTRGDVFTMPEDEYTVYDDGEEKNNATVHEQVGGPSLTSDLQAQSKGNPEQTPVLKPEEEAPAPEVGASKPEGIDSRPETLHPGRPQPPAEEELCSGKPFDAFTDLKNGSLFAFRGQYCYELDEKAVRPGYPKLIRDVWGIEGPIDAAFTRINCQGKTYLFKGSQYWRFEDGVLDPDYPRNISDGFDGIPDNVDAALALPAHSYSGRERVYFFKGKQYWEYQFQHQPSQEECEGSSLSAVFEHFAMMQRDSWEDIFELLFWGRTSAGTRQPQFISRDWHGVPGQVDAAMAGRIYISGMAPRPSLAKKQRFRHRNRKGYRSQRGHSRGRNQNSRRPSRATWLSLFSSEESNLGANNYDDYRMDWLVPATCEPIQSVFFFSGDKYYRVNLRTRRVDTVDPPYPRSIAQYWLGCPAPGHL
Method: as §1, §2

Measured: binding result

B1: BMP-2 (bone morphogenetic protein-2, Peprotech) (ligand, murine, UniProt P21274 281-394, looked up)
chain: QAKHKQRKRLKSSCKRHPLYVDFSDVGWNDWIVAPPGYHAFYCHGECPFPLADHLNSTNHAIVQTLVNSVNSKIPKACCVPTELSAISMLYLDENEKVVLKNYQDMVVEGCGCR
notes: also called wild-type BMP-2
binds: all assays above
